Consider two molecules from patent US20140363377A1 (UNIVERSITY OF BRITISH COLUMBIA, published 2014).

To fix the notation:
T1: DR4, endogenous, in human cancer cell lysates (human, UniProt O00220 24-468)
T1 construct: also called TRAIL receptor DR4
T1 sequence (looked up): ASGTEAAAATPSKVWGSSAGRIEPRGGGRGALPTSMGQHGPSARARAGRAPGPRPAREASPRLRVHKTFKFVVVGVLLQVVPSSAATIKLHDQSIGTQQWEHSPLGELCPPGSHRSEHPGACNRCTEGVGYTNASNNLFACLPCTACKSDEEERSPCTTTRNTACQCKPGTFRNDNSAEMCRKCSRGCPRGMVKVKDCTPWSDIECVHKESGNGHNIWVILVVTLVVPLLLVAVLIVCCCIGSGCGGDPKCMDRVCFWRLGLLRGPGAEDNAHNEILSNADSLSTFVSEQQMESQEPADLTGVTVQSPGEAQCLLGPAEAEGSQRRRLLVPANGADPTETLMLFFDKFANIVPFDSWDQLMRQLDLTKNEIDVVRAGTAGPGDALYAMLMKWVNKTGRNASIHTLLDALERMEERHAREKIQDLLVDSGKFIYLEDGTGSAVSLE

B1: SPARC (Secreted Protein, Acidic, Rich in Cysteines), His-tagged, stably expressed in MIP101 cells (MIP/SP) (other, human, UniProt P09486 18-303, looked up)
chain: APQQEALPDETEVVEETVAEVTEVSVGANPVQVEVGEFDDGAEETEEEVVAENPCQNHHCKHGKVCELDENNTPMCVCQDPTSCPAPIGEFEKVCSNDNKTFDSSCHFFATKCTLEGTKKGHKLHLDYIGPCKYIPPCLDSELTEFPLRMRDWLKNVLVTLYERDEDNNLLTEKQKLRVKKIHENEKRLEAGDHPVELLARDFEKNYNMYIFPVHWQFGQLDQHPIDGYLSHTELAPLRAPLIPMEHCTTRFFETCDLDNDKYIALDEWAGCFGIKQKDIDKDLVI
notes: Present in membrane fractions of MIP/SP cell lysates used for co-immunoprecipitation; also called osteonectin; His-tagged SPARC protein; not shown: His tag
B2: FADD, endogenous, in human cancer cell lysates (other, UniProt Q13158 1-208, looked up)
chain: MDPFLVLLHSVSSSLSSSELTELKFLCLGRVGKRKLERVQSGLDLFSMLLEQNDLEPGHTELLRELLASLRRHDLLRRVDDFEAGAAAGAAPGEEDLCAAFNVICDNVGKDWRRLARQLKVSDTKIDSIEDRYPRNLTERVRESLRIWKNTEKENATVAHLVGALRSCQMNLVADLVQEVQQARDLQNRSGAMSPMSWNSDASTSEAS
notes: also called Fas-associated death domain; p-FADD

Assay [1] concerns the target T1, DR4, endogenous, in human cancer cell …. In words: co-immunoprecipitation from subcellular fractions. How it is done:
(§1) Cells were separated into nuclear, cytosolic, and membrane fractions using ProteoExtract Subcellular Proteome Extraction Kit (EMD Biosciences Inc.). […] Protein:Antibody mixture was then incubated with 30 μL of Protein A: Protein G (Sigma) (1:1) beads for 4 hours (4° C.).

Assay [2] deals with B1. Description: co-immunoprecipitation from subcellular fractions. Here is the method:
as §1

With B1, the binding result in assay [1] was “no binding”.

As to B2, the binding result in assay [2] was “no binding”.
